± gives the standard deviation.
Test: collision cross section of modified peptide (TIMS, N2, iRT-aligned); higher = larger / more extended gas-phase ion
How it was run: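 Collision cross section values rest on the Mason-Schamp equation applied to calibrated, run-aligned mobility data from synthetic peptides. Mobility (1/K0) was calibrated with three reference ions and aligned per run to the median iRT peptide deviation, and 1–3 technical replicates of the most abundant feature per charge state were averaged. Data came from a timsTOF Pro/HT in dda-PASEF mode (nitrogen, ~2.4 mbar) after a 120-min nanoflow C18 gradient at 60 °C.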

[1] = charge state: 2, modification: Trimethyl (K)
[2] = charge state: 2, modification: hydroxyisobutyryl
[3] = charge state: 2, modification: Acetyl (K)
[4] = charge state: 2, modification: Biotin
[5] = charge state: 2, modification: Butyryl
[6] = charge state: 3, modification: Butyryl
[7] = charge state: 2, modification: Crotonyl
[8] = charge state: 3, modification: Crotonyl
[9] = charge state: 2, modification: Formyl
[10] = charge state: 2, modification: Glutarylation
[11] = charge state: 2, modification: GlyGly (K)
[12] = charge state: 3, modification: GlyGly (K)
[13] = charge state: 2, modification: Malonyl
[14] = charge state: 2, modification: Methyl (K)
[15] = charge state: 3, modification: Methyl (K)
[16] = charge state: 2, modification: Succinyl

ILDLKTGTVK [_ILDLK(Trimethyl (K))TGTVK_]
collision cross section [1]: 360.39 ± 1.1 Å²

ILDLKTGTVK [_ILDLK(hydroxyisobutyryl)TGTVK_]
collision cross section [2]: 366.99 ± 1.3 Å²

INNFSADIKDSK [_INNFSADIK(Acetyl (K))DSK_]
collision cross section [3]: 398.34 ± 0.77 Å²

INNFSADIKDSK [_INNFSADIK(Biotin)DSK_]
collision cross section [4]: 419.19 Å²

INNFSADIKDSK [_INNFSADIK(Butyryl)DSK_]
collision cross section [5]: 405.78 ± 0.75 Å²
collision cross section [6]: 461.68 ± 3.2 Å²

INNFSADIKDSK [_INNFSADIK(Crotonyl)DSK_]
collision cross section [7]: 405.9 ± 0.28 Å²
collision cross section [8]: 458.84 ± 1.6 Å²

INNFSADIKDSK [_INNFSADIK(Dimethyl (K))DSK_]
collision cross section (charge state: 2, modification: Dimethyl (K)): 406.51 ± 0.23 Å²
collision cross section (charge state: 3, modification: Dimethyl (K)): 455.06 ± 5.9 Å²

INNFSADIKDSK [_INNFSADIK(Formyl)DSK_]
collision cross section [9]: 395.4 ± 0.83 Å²

INNFSADIKDSK [_INNFSADIK(Gluratylation)DSK_]
collision cross section [10]: 404.4 ± 4.7 Å²
collision cross section (charge state: 3, modification: Glutarylation): 469.07 Å²

INNFSADIKDSK [_INNFSADIK(GlyGly (K))DSK_]
collision cross section [11]: 406.34 ± 0.36 Å²
collision cross section [12]: 465 ± 2.2 Å²

INNFSADIKDSK [_INNFSADIK(Malonyl)DSK_]
collision cross section [13]: 398.58 ± 0.027 Å²

INNFSADIKDSK [_INNFSADIK(Methyl (K))DSK_]
collision cross section [14]: 401.35 ± 2.2 Å²
collision cross section [15]: 451.47 ± 4.8 Å²

INNFSADIKDSK [_INNFSADIK(Propionyl)DSK_]
collision cross section (charge state: 2, modification: Propionyl): 401.7 ± 0.42 Å²

INNFSADIKDSK [_INNFSADIK(Succinyl)DSK_]
collision cross section [16]: 402.07 ± 0.25 Å²
collision cross section (charge state: 3, modification: Succinyl): 465.51 Å²

INNFSADIKDSK [_INNFSADIK(Trimethyl (K))DSK_]
collision cross section [1]: 411.01 ± 0.61 Å²
collision cross section (charge state: 3, modification: Trimethyl (K)): 459.74 ± 1.8 Å²

INNFSADIKDSK [_INNFSADIK(hydroxyisobutyryl)DSK_]
collision cross section [2]: 408.19 ± 0.53 Å²
collision cross section (charge state: 3, modification: hydroxyisobutyryl): 466.44 ± 1.1 Å²

IPAASAAAMNLASAR [_IPAAS(HexNAc (ST))AAAMNLASAR_]
collision cross section (charge state: 3, modification: HexNAc (ST)): 504.78 ± 1.3 Å²

IPAASAAAMNLASAR [_IPAASAAAMNLAS(HexNAc (ST))AR_]
collision cross section (charge state: 2, modification: HexNAc (ST)): 422.38 ± 0.62 Å²

IPPTYQIR [_IPPTY(Nitro (Y))QIR_]
collision cross section (charge state: 2, modification: Nitro (Y)): 343.35 ± 0.72 Å²

IPPTYQIR [_IPPTY(Phospho (Y))QIR_]
collision cross section (charge state: 2, modification: Phospho (Y)): 350.25 ± 0.066 Å²

IPQEKCILQTDVK [_IPQEK(Acetyl (K))CILQTDVK_]
collision cross section [3]: 431.12 ± 1.2 Å²

IPQEKCILQTDVK [_IPQEK(Butyryl)CILQTDVK_]
collision cross section [5]: 436.84 ± 0.53 Å²
collision cross section [6]: 487.47 ± 3.3 Å²

IPQEKCILQTDVK [_IPQEK(Crotonyl)CILQTDVK_]
collision cross section [7]: 433.54 Å²

IPQEKCILQTDVK [_IPQEK(Formyl)CILQTDVK_]
collision cross section [9]: 427.41 Å²

IPQEKCILQTDVK [_IPQEK(Gluratylation)CILQTDVK_]
collision cross section [10]: 437.23 ± 0.96 Å²

IPQEKCILQTDVK [_IPQEK(GlyGly (K))CILQTDVK_]
collision cross section [11]: 446.01 ± 0.95 Å²
collision cross section [12]: 482.94 ± 1.1 Å²

IPQEKCILQTDVK [_IPQEK(Malonyl)CILQTDVK_]
collision cross section [13]: 431.57 Å²

IPQEKCILQTDVK [_IPQEK(Methyl (K))CILQTDVK_]
collision cross section [14]: 433.64 ± 1.1 Å²
collision cross section [15]: 464.28 ± 2.7 Å²

IPQEKCILQTDVK [_IPQEK(Succinyl)CILQTDVK_]
collision cross section [16]: 432.46 ± 0.51 Å²

IPQEKCILQTDVK [_IPQEK(hydroxyisobutyryl)CILQTDVK_]
collision cross section [2]: 438.91 ± 0.79 Å²

IQNGAQGIRFIYTR [_IQNGAQGIR(Citrullination (R))FIYTR_]
collision cross section (charge state: 3, modification: Citrullination (R)): 506.23 Å²

IQQELQTAKK [_IQQELQTAK(Acetyl (K))K_]
collision cross section [3]: 374.24 ± 0.38 Å²
collision cross section (charge state: 3, modification: Acetyl (K)): 435.9 ± 0.91 Å²

IQQELQTAKK [_IQQELQTAK(Biotin)K_]
collision cross section [4]: 397.29 ± 2.2 Å²
collision cross section (charge state: 3, modification: Biotin): 468.38 ± 0.34 Å²

IQQELQTAKK [_IQQELQTAK(Butyryl)K_]
collision cross section [5]: 385.32 ± 2.2 Å²
collision cross section [6]: 441.3 Å²

IQQELQTAKK [_IQQELQTAK(Crotonyl)K_]
collision cross section [7]: 386.16 ± 0.79 Å²
collision cross section [8]: 431.2 ± 1.6 Å²
